Laboratory results published in article PMC3421062.

Assays:
[1] = biological target: N130-V5 recombinant protein (NAC1 BTB domain only) (UniProt Q96RE7); test: pull-down
[2] = biological target: NAC1-V5 recombinant protein (UniProt Q96RE7); test: pull-down

A Kd [1] of 520 nM and a Kd [2] of 780 nM were found for “purified recombinant actin (Cytoskeleton Inc.) (from UniProt P60709 1-375) (natural protein)” in this work.
